The supplement of paper PMC10724198
± gives the standard deviation of the averaged measurements.

System: Saccharomyces cerevisiae
Experiment: protein stability index of tFT-peptide fusion (C-terminal peptide) (PSI (0-1 scale)); higher = more stable (slower turnover)
Conditions: genetic background: wild type; temperature: 30 C
Method: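 Multiplexed protein stability (MPS) profiling in S. cerevisiae. Random 12-aa peptides (tFT-X12 library) are fused to the C-terminus of a sfGFP-mCherry tandem fluorescent timer, after mCherry and a GGGS linker. Cells are FACS-sorted into 8 mCherry/sfGFP bins and deep-sequenced. The protein stability index (PSI) is the read-weighted bin average, scaled from 0 (unstable) to 1 (stable). Only peptides with >10 reads are reported; cells were grown at 30 °C in SC-His with glucose.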
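Further: PSI is a weighted mean of sequencing reads over stability bins, variants kept only with over 10 reads, mCherry proximal and sfGFP distal, peptide attached via GGGS linker.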

Sequence | protein stability index
GTGSVHYHRSGL | 0.676 ± 0.016
GTGTNGPSSAKL | 0.7399 ± 0.0056
GTHGVGGNIDLT | 0.648 ± 0.013
GTLGYALPTPYE | 0.6736 ± 0.0059
GTQSGGGGGKGG | 0.683 ± 0.044
GTRGVFEVCMDG | 0.704 ± 0.025
GTYGLCVWGRYL | 0.633 ± 0.056
GTYPGAGWRYEW | 0.694 ± 0.037
GVAGWGTVVGAQ | 0.712 ± 0.07
GVAISSGNHINH | 0.654 ± 0.12
GVAWGSGVGMMW | 0.718 ± 0.029
GVCAVCRLGLVA | 0.5574 ± 0.00072
GVCGGVGGWGVA | 0.698 ± 0.019
GVCPPAGDAGGV | 0.711 ± 0.018
GVEGDPESKGRV | 0.696 ± 0.068
GVFEGLVYGGLC | 0.719 ± 0.012
GVFVVGLSCSLR | 0.5521 ± 0.0048
GVGAERCFVGVV | 0.681 ± 0.077
GVGCVGGGSSCA | 0.67 ± 0.1
GVGFRVVRTSGR | 0.6859 ± 0.0018
GVGRGGAVENKV | 0.742 ± 0.054
GVGVGDCVRCMV | 0.619 ± 0.008
GVGWPGVGAGGG | 0.635 ± 0.05
GVGWQSPGVLVL | 0.605 ± 0.017
GVIGGLRAGVGG | 0.719 ± 0.079
GVLGWTRFRSCS | 0.715 ± 0.077

Sequence | protein stability index
GVLLWWGRRRGE | 0.7224 ± 0.0048
GVLWCGYGVGGG | 0.762 ± 0.11
GVNGSGFLSEVI | 0.6795 ± 0.0012
GVPGQFVSENII | 0.679 ± 0.027
GVQDVRAGLLEY | 0.676 ± 0.037
GVQFSVWCGSVG | 0.7 ± 0.04
GVRCVQGTVTGR | 0.7 ± 0.099
GVREGCRGGVGA | 0.625 ± 0.052
GVRGCGMTADVF | 0.668 ± 0.008
GVRGGCDRGEVG | 0.604 ± 0.046
GVRPWGGMCSCL | 0.7046 ± 0.0024
GVRSGAGGQGVG | 0.708 ± 0.069
GVSGQGLVAVEV | 0.59 ± 0.035
GVVALFLYLLVL | 0.494 ± 0.02
GVVERGRRAGEG | 0.659 ± 0.028
GVVGKDEGRSRA | 0.797 ± 0.038
GVVMLSDDGSAW | 0.718 ± 0.026
GVVSVFVGSLGG | 0.699 ± 0.067
GVVVVVVGRGLG | 0.574 ± 0.018
GVVWMSCGGGWG | 0.7543 ± 0.0068
GVVWMSCGGWWG | 0.7545 ± 0.0042
GVVWMSGGGWWG | 0.761 ± 0.03
GVWCFPVGVFRA | 0.529 ± 0.011
GVWGVGGGGGGR | 0.634 ± 0.088
GVWRCGVVGLSL | 0.665 ± 0.038
GVWSLVGRGGEG | 0.621 ± 0.017

Sequence | protein stability index
GVWVASCSGAGI | 0.632 ± 0.033
GWALGRAGASGA | 0.701 ± 0.067
GWGGAGGGGGRV | 0.652 ± 0.1
GWGGCGGWGFVG | 0.605 ± 0.011
GWGGIGDGGPVW | 0.679 ± 0.019
GWGVPGPEPREP | 0.658 ± 0.064
GWHVGCGCTVFR | 0.671 ± 0.061
GWKLGAGRRGVI | 0.704 ± 0.029
GWLGFVGGVRVQ | 0.685 ± 0.0063
GWRGAAGVPTVD | 0.73 ± 0.031
GWSFDLVSAQWG | 0.817 ± 0.02
GWSGCNWCIGVG | 0.584 ± 0.018
GWTGEVGVAAGA | 0.65 ± 0.064
GWVLRERGRGVG | 0.572 ± 0.07
GWWAVSRSGCCC | 0.693 ± 0.015
GYAGSRRLGLQE | 0.641 ± 0.015
GYHRGLSHVLED | 0.694 ± 0.018
GYLGEIHLHYVQ | 0.708 ± 0.048
GYWGRGGGLGGV | 0.7438 ± 0.001
GYYVLSIGGVIV | 0.574 ± 0.0065
HAARFRLPASPC | 0.672 ± 0.051
HAAWQHPNTTQV | 0.714 ± 0.013
HADFRTLLASRS | 0.67 ± 0.018
HAHPDQTKLDTA | 0.7 ± 0.063
HARAGTKPLTGY | 0.678 ± 0.0092
HCSWRSLMTLAG | 0.642 ± 0.031

Sequence | protein stability index
HCVRVEWVEGRR | 0.668 ± 0.023
HDGIQVSVRRRT | 0.67 ± 0.011
HFSSLDPFLPSL | 0.712 ± 0.016
HGFHSPPSDLPT | 0.724 ± 0.15
HGLPPPLPPLRS | 0.689 ± 0.019
HGSRGGIINEEG | 0.642 ± 0.082
HGYRWCLHARFG | 0.556 ± 0.058
HHPSPPSPSPAC | 0.698 ± 0.018
HIGDLRDSCFIS | 0.693 ± 0.031
HIIRGDCVGVLG | 0.618 ± 0.017
HILDHVTSSLSF | 0.66 ± 0.011
HILINTCSCASL | 0.546 ± 0.044
HISSFPSPPPPV | 0.711 ± 0.054
HIVSRKYNYPCT | 0.739 ± 0.088
HKEYGTTCYGYR | 0.691 ± 0.049
HLCVDHLGCHSF | 0.703 ± 0.048
HLFWSRGICFFR | 0.631 ± 0.062
HLHGKTERPSHL | 0.811 ± 0.058
HLIRRGGSQTWT | 0.713 ± 0.049
HLLLLSLVFFFW | 0.744 ± 0.017
HLSLPTRAPIRH | 0.696 ± 0.019
HMCSTYGKLRLD | 0.622 ± 0.052
HMLVCPLAALGI | 0.6884 ± 0.0031
HPAGPSGRLLPT | 0.685 ± 0.0095
HPETIGHNVRPR | 0.708 ± 0.048
HPFARGPLSRHP | 0.7 ± 0.081

Sequence | protein stability index
HPIPHDVSGRRN | 0.784 ± 0.1
HPPITPYLHRRT | 0.724 ± 0.17
HPPPCLSLPSSP | 0.731 ± 0.095
HPPPETEPIPVA | 0.574 ± 0.066
HPPPSPRPPPPP | 0.691 ± 0.039
HPSNMYSGDEAP | 0.68 ± 0.01
HPSPPPPPPFPT | 0.748 ± 0.038
HQYLGMCLDRPV | 0.6455 ± 0.0054
HRASFRIGFRTF | 0.758 ± 0.033
HRCLCGCLDSVV | 0.726 ± 0.028
HRDPRFSRCSTC | 0.69 ± 0.034
HREGTTAFFKTH | 0.536 ± 0.013
HRLMDTNFSRSP | 0.743 ± 0.061
HRLTGMRKRGRG | 0.658 ± 0.066
HRLWAGWGLEQC | 0.712 ± 0.013
HRPDGTSRKSGA | 0.662 ± 0.024
HRRCPVPRGSSP | 0.704 ± 0.019
HRYRAFPLASSR | 0.618 ± 0.056
HSASSDAGIKVR | 0.718 ± 0.0083
HSFPSTLRRCFL | 0.731 ± 0.095
HSHIPPNLTYCP | 0.69396 ± 0.00029
HSIPPPRRHPTI | 0.742 ± 0.025
HSPPAGPPHTKT | 0.6694 ± 0.0039
HSPPPPFSPFSP | 0.667 ± 0.024
HSPSSLCHPSTG | 0.727 ± 0.098
HSRGGEPLTPAW | 0.642 ± 0.092

Sequence | protein stability index
HSSPPPAPPPLP | 0.697 ± 0.019
HSSSGTHRIKKT | 0.667 ± 0.052
HTKYISRRRTKR | 0.706 ± 0.013
HTPTLPLHPPRY | 0.642 ± 0.037
HTTMVGVAEGWV | 0.686 ± 0.049
HTVPTLLPPNVP | 0.665 ± 0.015
HVAYAQSRLFYA | 0.638 ± 0.094
HVLRMFTGFLFC | 0.624 ± 0.044
HVRVGRGLAVMC | 0.528 ± 0.027
HVYDQLLSGAVA | 0.691 ± 0.017
HWVVRGGSRRVV | 0.7056 ± 0.0045
HYDTHQTPQTSP | 0.667 ± 0.023
IACLDVLRRALF | 0.627 ± 0.016
IADDSSHGFRGE | 0.7161 ± 0.0064
IAKKNKTSKNRK | 0.703 ± 0.025
IALLGCFRVNGN | 0.638 ± 0.095
IAQDLEPACIKG | 0.695 ± 0.021
IATPQNPRRTKA | 0.714 ± 0.045
IAVPFMPADLSF | 0.718 ± 0.0089
IAVSSHPVLVCK | 0.5961 ± 0.0029
IAWGNEISHSLF | 0.72 ± 0.066
ICGGTNFPLGSV | 0.741 ± 0.032
ICGLWVCLGHGF | 0.595 ± 0.067
ICSLLIRREELV | 0.681 ± 0.081
ICSVHFLFFPLL | 0.573 ± 0.014
